From patent US20210317213A1 (AMBRX, published 2021)
Numbering of substitutions follows the chain as printed.

Columns and labels:
human CD3 [1] = biological target: T1, human CD3 (human, UniProt P07766 23-207); test: cell binding, human PBMC
T1 construct: whole, on cells; also called CD3 on human T-cells

human CD3 [2] = biological target: T1, human CD3; test: cell binding, human T-cells; design: Bmax: unit not given here
cyno CD3 [3] = biological target: T2, cyno CD3 (cyno (cynomolgus monkey), UniProt Q95LI5 22-198); test: cell binding, cynomolgus T-cells
T2 construct: whole, on cells; also called CD3 on Cynomolgus T-cells

cyno CD3 [4] = biological target: T2, cyno CD3; test: cell binding, activated cyno PBMC
[5] = biological target: Folate receptor-alpha (FOLR1) (human) (UniProt P15328); test: summary table; FRα affinity over CD3 affinity
human CD3 [6] = biological target: T1, human CD3; test: cell binding, activated human PBMC
[7] = biological target: Folate receptor-alpha (FOLR1) (human) (UniProt P15328); test: summary table; cell binding through the folate moiety
human CD3 [8] = biological target: T1, human CD3; test: cell binding, human CD3, 50 nM SFA present
human CD3 [9] = biological target: T1, human CD3; test: summary table; cell binding EC50, human PBMC
cyno CD3 [10] = biological target: T2, cyno CD3; test: cell binding, activated cyno PBMC; E. coli protein
human CD3 [11] = biological target: T1, human CD3; test: cell binding, activated human PBMC; E. coli protein
[12] = biological target: Folate receptor-alpha (FOLR1) (human) (UniProt P15328); test: cell binding, FOLRα-expressing KB cells; through the folate moiety
cyno CD3 [13] = biological target: T2, cyno CD3; test: cell binding, cyno CD3 (activated cyno PBMC); cyno CD3 (second number of the cell)
Procedure: (§1) Testing for CD3 binding with activated human and cyno PBMC: To distinguish between the humanized anti-CD3 antibodies generated, binding to human CD3 was tested using activated human PBMCs (n=2). The activation of PBMCs and subsequent fluorescence-based CD3 binding assays were followed as described previously (see for example, Angew Chem Int Ed Engl, 52(46):12101-12104, 2013). […] The binding of the remaining 6 humanized antibodies to both human and cyno CD3 using activated human and cyno PBMCs, respectively, was titrated. […] The six (6) humanized anti-CD3 antibodies were obtained as follows: Fab1, Fab2 and Fab3 wildtype were generated by combination of LC ((vL1.2+CL); (SEQ.ID. NO:7)) and HC ((vH1.2+CH1); (SEQ.ID. NO:1)), ((vH1.1+CH1); (SEQ.ID. NO:2)) and ((vH1.0+CH1); (SEQ.ID. NO:3)) respectively. Fab4, Fab 5 and Fab6 wildtype were generated by combination of LC ((vL1.1+CL); (SEQ.ID. NO:8)) and HC ((vH1.2+CH1); (SEQ.ID. NO:1)), ((vH1.1+CH1); (SEQ.ID. NO:2)) and ((vH1.0+CH1); (SEQ.ID. NO:3)) respectively.
(§2) Binding of Folate-conjugated Fabs to human and cyno CD3: Binding of E. coli produced and Folate-conjugated low-affinity variants of humanized anti-CD3 Fabs was performed as described in the above Examples.

human CD3 [14] = biological target: T1, human CD3; test: cell binding, human CD3 (activated human PBMC); human CD3 (first number of the cell)
Procedure: as §1, §2

[15] = biological target: Folate receptor-alpha (FOLR1) (human) (UniProt P15328); test: cell binding, SKOV-3 cells with 50 nM SFA; through the folate moiety; SKOV-3 cells, with 50 nM SFA; binding through the conjugated folate
Folate receptor beta = Folate receptor beta (human, UniProt P14207 17-230); test: cell-based or functional assay
human CD3 [16] = biological target: T1, human CD3; test: cell binding, human PBMC, 20 nM SFA present
[17] = biological target: Folate receptor-alpha (FOLR1) (human) (UniProt P15328); test: cell binding, SKOV-3 cells with 50 nM SFA; through the folate moiety
human CD3 [18] = biological target: T1, human CD3; test: cell binding, human T-cells; assigned to the Bi5KPEG-BiFolate / BiFolate pair from Table 37
human CD3 [19] = biological target: T1, human CD3; test: flow cytometry (MFI) on activated human PBMC, Fab in HEK293 culture medium, concentration not shown
Procedure: as §1

cyno CD3 [20] = biological target: T2, cyno CD3; test: flow cytometry (MFI), 11-point titration on cyno CD3 (activated cyno PBMC), HEK293 culture supernatant
Procedure: (§3) Screening for human and cyno CD3 binding: HEK293 culture supernatants were directly used to test for binding to human CD3 in the screening phase. In Round 1 experiment, initially 35 clones were tested for binding to human CD3 at three different protein concentrations, and 13 were selected for detailed binding assays to both human and cyno CD3. An 11-point binding titration curve was generated to both human (FIG. 4A) and cyno CD3 (FIG. 4B) for each clone. […] Similarly, 43 clones were screened in Round 2 experiment. After two-stage screening as described above for Round 1, 11 low-affinity variants were obtained, of which 4 are represented as shown in FIGS. 5A-5B

human CD3 [21] = biological target: T1, human CD3; test: flow cytometry (MFI), 11-point titration on human CD3 (activated human PBMC), HEK293 culture supernatant
Procedure: as §3

human CD3 [22] = biological target: T1, human CD3; test: cell binding, activated human PBMC; remark: listed apart in the source
cyno CD3 [23] = biological target: T2, cyno CD3; test: flow cytometry (MFI) titration on cyno CD3 (activated cyno PBMC), HEK293 culture supernatant
Procedure: as §3

human CD3 [24] = biological target: T1, human CD3; test: flow cytometry (MFI) titration on human CD3 (activated human PBMC), HEK293 culture supernatant
Procedure: as §3

T2 sequence (Q95LI5 22-198): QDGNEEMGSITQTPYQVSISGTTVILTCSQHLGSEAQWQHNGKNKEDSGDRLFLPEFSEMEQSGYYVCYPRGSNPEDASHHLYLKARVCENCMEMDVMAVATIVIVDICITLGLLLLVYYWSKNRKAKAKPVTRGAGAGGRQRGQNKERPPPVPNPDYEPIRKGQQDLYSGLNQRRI
Sequence of Folate receptor-alpha (FOLR1) (human) (P15328 25-234): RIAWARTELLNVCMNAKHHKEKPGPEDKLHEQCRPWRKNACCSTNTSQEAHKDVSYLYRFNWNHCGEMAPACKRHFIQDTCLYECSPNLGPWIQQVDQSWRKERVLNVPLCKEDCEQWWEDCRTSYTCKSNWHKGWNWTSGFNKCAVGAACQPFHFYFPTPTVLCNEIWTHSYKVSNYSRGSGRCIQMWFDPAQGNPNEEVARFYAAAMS
T1 sequence (P07766 23-207): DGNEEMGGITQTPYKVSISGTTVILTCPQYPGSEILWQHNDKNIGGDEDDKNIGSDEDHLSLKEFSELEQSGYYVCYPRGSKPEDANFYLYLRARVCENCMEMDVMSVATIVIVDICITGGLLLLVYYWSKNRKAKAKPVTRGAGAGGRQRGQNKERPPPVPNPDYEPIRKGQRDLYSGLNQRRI
Sequence of Folate receptor beta (P14207 17-230): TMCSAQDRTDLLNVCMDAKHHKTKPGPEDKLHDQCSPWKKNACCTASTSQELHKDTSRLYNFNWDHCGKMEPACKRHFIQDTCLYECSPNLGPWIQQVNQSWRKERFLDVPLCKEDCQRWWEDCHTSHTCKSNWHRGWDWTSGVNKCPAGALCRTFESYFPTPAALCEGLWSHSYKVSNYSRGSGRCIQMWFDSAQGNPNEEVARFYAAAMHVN

B1: Fab1-HK129-Folate (Fab, V domains shown)
VH: EVQLVESGGGLVQPGGSLRLSCAASGFTFNTYAMNWVRQAPGKGLEWVARIRSKYNNYATYYADSVKDRFTISRDDSKNILYLQMNSLKTEDTAVYYCVRHGNFGNSYVSWFAYWGQGTLVTVSS
VL: QAVVTQEPSLTVSPGGTVTLTCRSSTGAVTTSNYANWVQQKPGQAPRGLIGGTNKRAPGTPARFSGSLLGGKAALTLSGAQPEDEAEYYCALWYSNLWVFGGGTKLTVLG
modifications: pAF at HK129 (Kabat) conjugated to folate (oxime)
notes: From E. coli; also called Folate lead; parent control
EC50 (human CD3 [1]): 2.45 nM | Bmax (human CD3 [2]): 30100 | Kd (human CD3 [2]): 1.53 nM | Bmax (cyno CD3 [3]): 25700 | Kd (cyno CD3 [3]): 2.69 nM | EC50 (cyno CD3 [4]): 1.41 nM | Affinity ratio (FRα:CD3) [5]: 35 | EC50 (human CD3 [6]): 2.78 nM | FRα binding affinity [7]: 59.6 nM | EC50 (human CD3 [8]): 2 nM | CD3 binding affinity (human CD3 [9]): 1.69 nM | EC50 (cyno CD3 [10]): 2.05 nM | EC50 (human CD3 [11]): 1.69 nM | Bmax [12]: 101000 | Kd [12]: 1.97 nM | EC50 (cyno CD3 [13]): 3.3 nM | EC50 (human CD3 [14]): 2.31 nM | EC50 [15]: 44.5 nM

B2: Fab1-HK129-LL157-5KPEG-Folate (Fab, V domains shown)
VH: B1 VH
VL: B1 VL
modifications: pAF at LL157 (Kabat); 5K PEG-folate conjugated, and the label does not say at one site or both; pAF at HK129 (Kabat); 5K PEG-folate conjugated, and the label does not say at one site or both
IC50, killing of human M2 macrophages with human T-cells, 50 nM folic acid (Folate receptor beta): 0.112 nM

B3: Fab10-HK129-LL157-BiFolate-Bi5KPEG (Fab, V domains shown)
VH: B1 VH with N30S
VL: B1 VL with V38F, T60V
modifications: pAF at LL157 (Kabat) conjugated to a bifunctional linker carrying folate and 5K PEG (oxime); pAF at HK129 (Kabat) conjugated to a bifunctional linker carrying folate and 5K PEG (oxime)
EC50 (human CD3 [16]): 6310 nM

B4: Fab1-HK129-LL157-Folate (Fab, V domains shown)
VH: B1 VH
VL: B1 VL
modifications: pAF at LL157 (Kabat); folate conjugated, and the label does not say at one site or both; pAF at HK129 (Kabat); folate conjugated, and the label does not say at one site or both
IC50, killing of human M2 macrophages with human T-cells, 50 nM folic acid (Folate receptor beta): 0.0012 nM

B5: Fab9-HK129-LL157-BiFolate-Bi5KPEG (Fab, V domains shown)
VH: B1 VH with A49G, I80S
VL: B1 VL with V38F, T60V
modifications: pAF at LL157 (Kabat) conjugated to a bifunctional linker carrying folate and 5K PEG (oxime); pAF at HK129 (Kabat) conjugated to a bifunctional linker carrying folate and 5K PEG (oxime)
EC50 (human CD3 [16]): 340 nM

B6: Fab1-HK129-LL157-BiFolate (Fab, V domains shown)
VH: B1 VH
VL: B1 VL
modifications: pAF at LL157 (Kabat) conjugated to folate (oxime); pAF at HK129 (Kabat) conjugated to folate (oxime)
notes: From E. coli; carries two folates
EC50 (human CD3 [1]): 1.93 nM | Fold increase binding (vs Fab1-HK129-Folate) (human CD3 [1]): 1.3 fold | Bmax (human CD3 [2]): 24600 | Kd (human CD3 [2]): 0.669 nM | Bmax (cyno CD3 [3]): 19600 | Kd (cyno CD3 [3]): 1 nM | Affinity ratio (FRα:CD3) [5]: 10 | FRα binding affinity [7]: 19.8 nM | EC50 (human CD3 [8]): 2.37 nM | CD3 binding affinity (human CD3 [9]): 1.93 nM | Bmax [12]: 74400 | Kd [12]: 0.85 nM | EC50 [17]: 19.8 nM | Fold increase binding (vs Fab1-HK129-Folate) [17]: 2.2 fold

B7: Fab1-HK129-LL157-BiFolate-Bi5KPEG (Fab, V domains shown)
VH: B1 VH
VL: B1 VL
modifications: pAF at LL157 (Kabat) conjugated to a bifunctional linker carrying folate and 5K PEG (oxime); pAF at HK129 (Kabat) conjugated to a bifunctional linker carrying folate and 5K PEG (oxime)
notes: From E. coli; carries two folates and two 5K PEG; also called Fab1-HK129-LL157-Bi5KPEG-BiFolate
Bmax (human CD3 [2]): 15300 | Kd (human CD3 [2]): 3.34 nM | Bmax (cyno CD3 [3]): 13200 | Kd (cyno CD3 [3]): 5.01 nM | EC50 (human CD3 [8]): 7.5 nM | EC50 (human CD3 [16]): 5.7 nM | Bmax [12]: 83100 | Kd [12]: 2.28 nM | fold lower binding affinity (vs the non-pegylated version) (human CD3 [18]): ~5 fold

B8: humanized anti-CD3 Fab vH1.2 + vL1.0 (Fab, V domains shown)
VH: B1 VH
VL: B1 VL with V38F, G48T, G51Y, G59W
notes: it has no Fab number; HEK293 supernatant; also called antibody with vL1.0 light chain and vH1.2
binding result (human CD3 [19]): no binding

B9: Fab7 (vH2.3 / vL2.4), wild type from HEK293 (Fab, V domains shown)
VH: B1 VH with V99A
VL: B1 VL with G59W, T60V
notes: HEK293 supernatant
EC50 (read off the curve) (cyno CD3 [20]): ~2 nM | EC50 (read off the curve) (human CD3 [21]): ~2 nM

B10: Fab20-HK129-Folate (Fab, V domains shown)
VH: B1 VH with N35H
VL: B1 VL with K55N
modifications: pAF at HK129 (Kabat) conjugated to folate (oxime)
binding result (human CD3 [22]): no binding (tested: 1000 nM)

B11: Fab11-HK129-Folate (Fab, V domains shown)
VH: B1 VH with N30S, A49G, I80S
VL: B1 VL with V38F, G48T, G51Y, G59W
modifications: pAF at HK129 (Kabat) conjugated to folate (oxime)
binding result (human CD3 [22]): no binding (tested: 1000 nM)

B12: Fab14 (Fab, V domains shown)
VH: B1 VH with A49G, I80S, V99A
VL: B1 VL with V38F, T60V
notes: distinct from m37 (Fab14-HK129-Folate); also called Fab14 (vH2.5 / vL2.1), wild type from HEK293
EC50 (read off the curve) (cyno CD3 [23]): ~10 nM | EC50 (read off the curve) (human CD3 [24]): ~5 nM

B13: Fab9 (vH1.0 / vL2.1), wild type from HEK293 (Fab, V domains shown)
VH: B1 VH with A49G, I80S
VL: B1 VL with V38F, T60V
notes: HEK293 supernatant
EC50 (read off the curve) (human CD3 [21]): ~10 nM

B14: humanized anti-CD3 Fab vH1.0 + vL1.0 (Fab, V domains shown)
VH: B1 VH with A49G, I80S
VL: B1 VL with V38F, G48T, G51Y, G59W
notes: it has no Fab number; HEK293 supernatant; also called antibody with vL1.0 light chain and vH1.0
binding result (human CD3 [19]): no binding

B15: Fab8 (vH2.2 / vL2.1), wild type from HEK293 (Fab, V domains shown)
VH: B1 VH with A49G
VL: B1 VL with V38F, T60V
notes: HEK293 supernatant
EC50 (read off the curve) (cyno CD3 [20]): ~6 nM

B16: Fab19-HK129-Folate (Fab, V domains shown)
VH: B1 VH with N35H
VL: B1 VL
modifications: pAF at HK129 (Kabat) conjugated to folate (oxime)
binding result (human CD3 [22]): no binding (tested: 1000 nM)

B17: Fab1 wildtype (vH1.2+CH1 / vL1.2+CL), humanized anti-CD3 SP34 (Fab, V domains shown)
VH: B1 VH
VL: B1 VL
notes: also called Fab1-WT; vH1.2+vL1.2
EC50 (cyno CD3 [10]): 0.75 nM | EC50 (human CD3 [11]): 0.93 nM | EC50 (read off the curve) (cyno CD3 [23]): ~2 nM | EC50 (read off the curve) (human CD3 [24]): ~0.8 nM | EC50 (read off the curve) (cyno CD3 [20]): ~0.6 nM | EC50 (read off the curve) (human CD3 [21]): ~0.7 nM

B18: humanized anti-CD3 Fab vH1.1 + vL1.0 (Fab, V domains shown)
VH: B1 VH with I80S
VL: B1 VL with V38F, G48T, G51Y, G59W
notes: it has no Fab number; HEK293 supernatant; also called antibody with vL1.0 light chain and vH1.1
binding result (human CD3 [19]): no binding
